Values quoted from earlier work as cited in paper PMC7563123.

Assays:
[1] = molecular target: Aβ1–40 Aβ1-40 (Homo sapiens) (UniProt P05067); experiment: ligand binding assay
[2] = molecular target: Aβ1–42 Aβ1-42 (Homo sapiens) (UniProt P05067); experiment: ligand binding assay
Chain of Aβ1–42 Aβ1-42 (Homo sapiens) (P05067 1-42): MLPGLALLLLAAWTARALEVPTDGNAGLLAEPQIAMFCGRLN

Chain of 17β-HSD10 (Q99714 2-261): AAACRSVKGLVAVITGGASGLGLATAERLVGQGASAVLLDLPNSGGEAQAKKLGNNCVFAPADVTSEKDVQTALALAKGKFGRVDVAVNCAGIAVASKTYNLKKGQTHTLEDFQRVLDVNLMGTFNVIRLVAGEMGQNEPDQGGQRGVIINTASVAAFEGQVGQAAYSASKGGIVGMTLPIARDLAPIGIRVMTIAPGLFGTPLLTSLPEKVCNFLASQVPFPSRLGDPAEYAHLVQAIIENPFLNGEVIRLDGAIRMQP
Chain of Aβ1–40 Aβ1-40 (Homo sapiens) (P05067 1-40): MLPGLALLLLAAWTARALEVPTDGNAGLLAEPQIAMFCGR

- Kd [1]: 38.4 nM
- Kd [2]: 55.8 nM
Substance: 17β-HSD10 (from UniProt Q99714)
